In article PMC8251270 (Journal of Leukocyte Biology, 2021):

Experiments:
[1] = biological target: tetranectin (TN) of murine lung tissue (Mus musculus (lung tissue lysate), UniProt P43025); experiment: Western blot; conditions: one partner purified
[2] = biological target: recombinant receptor‐binding motif (RBM) of SARS‐CoV‐2 spike (S) protein, residue 437–508 (SARS-CoV-2, UniProt P0DTC2); experiment: SPR; conditions: both partners purified

tetranectin (TN) of murine lung tissue, sequence (P43025 22-202): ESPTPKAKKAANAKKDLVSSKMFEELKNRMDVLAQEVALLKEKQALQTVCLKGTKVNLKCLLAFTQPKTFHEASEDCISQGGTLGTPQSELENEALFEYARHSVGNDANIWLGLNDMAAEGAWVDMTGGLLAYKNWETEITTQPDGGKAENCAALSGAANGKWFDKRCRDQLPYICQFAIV

| Binder | binding result [1] | Kd [2] |
| --- | --- | --- |
| mAb8 (antibody, V domains shown) VH: DVKLVESGGGLVKLGGSLKLSCAASGFTFSTDYMSWVRQSPEKRLELVAAINSNGGTTYYPDTVKGRFIISRDNAKNTLYLQMSSLRSEDTALYYCARQVKNGLDYWGQGTSVTVSS VL: DIQMTQTTSSLSASLGDRVTISCRASQDISNYLNWYQQKPDGTVKLLIYKTSRLHSGVPSRFRGSGSGTDYSLTISNLEEEDVATYFCQQGNTLPPTFGGGTKLEIK | binds | 17.4 nM |
| mAb2 (antibody, V domains shown) VH: DVKLVESGGGLVNLGGSLKLSCAASGFTFSSDYMSWVRQIPEKRLELVAAINSNGGTTYYPDTVKGRFTISRDNAKNTLYLQMSSLKSEDTALYYCARQGKNGMDYWGQGTSVTVSS VL: DIQMTQTTSSLSASLGDRVTISCRASQDISNHLNWYQQRPDGTVKLLIYYTSRLHSGVPSRFSGSGSGTDYSFTITNLDQEDIATYFCQQGKTLPPTFGGGTKLEIK | binds | 62.8 nM |
